Results on 4 molecules are retold here after patent US20020045158, “Cells for drug discovery” (published 2002).

The subject of data set [1] is SP-1 zinc finger domain (Homo sapiens). Briefly: EMSA. The note with it: target sequence not given. For orientation: A gel shift assay detects complexes by their altered migration in electrophoresis.
The next data set deals with Zif268. Put plainly: EMSA. The note with it: target sequence not given; literature 2-30 nM; cited from earlier work.
A further data set concerns the target T1, VEGF3a/1 six-finger ZFP (artificial (human SP-1 backbone)).
T1 chain: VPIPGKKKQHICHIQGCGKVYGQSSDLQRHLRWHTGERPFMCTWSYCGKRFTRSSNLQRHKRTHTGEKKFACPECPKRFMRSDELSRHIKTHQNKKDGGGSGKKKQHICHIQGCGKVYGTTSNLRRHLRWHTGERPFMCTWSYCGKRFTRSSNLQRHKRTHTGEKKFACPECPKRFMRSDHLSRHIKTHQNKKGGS
Briefly: competition; half-life of complex relative to VEGF1, EMSA competition at 37 C. The note with it: tags: MBP N-terminal fusion; label: 5' 32P. As for the experimental part:
For the EMSA studies, 20 μl binding reactions contained 10 fmole (0.5 nM) 5′ ³²P-labeled double-stranded target DNA, 35 mM Tris HCl (pH 7.8), 100 mM KCl, 1 mM MgCl₂, 5 mM dithiothreitol, 10% glycerol, 20 μg/ml poly dI-dC, 200 μg/ml bovine serum albumin, and 25 μM ZnCl₂. Protein was added as one fifth volume from a 3-fold dilution series. Binding was allowed to proceed for 60 min at either room temperature or 37° C. Polyacrylamide gel electrophoresis was carried out at room temperature or 37° C. using precast 10% or 10-20% Tris-HCl gels (BioRad) and standard Tris-Glycine running buffer. The room temperature assays yielded an apparent Kd for this VEGF3a/1 protein of approximately 1.5 nM. Thus, the 18-bp binding ZFP bound with high affinity to its target site. […] When binding and electrophoresis were performed at 37° C., the apparent Kd of VEGF3a/1 was approximately 9 nM when tested against the 18-bp target, compared to a Kd of 40 nM for VEGF1 tested against its target.
The apparent Kd is a useful measure of the affinity of a protein for its DNA target. However, for a DNA binding site either in vitro or in vivo, its occupancy is determined to a large extent by the off-rate of the DNA-binding protein. This parameter can be measured by competition experiments. The conditions for EMSA were as described above; binding and electrophoresis were performed at 37° C. […]

Another data set addresses T2, ZFP3A-VP16 / KRAB-ZFP3A (artificial, UniProt P08047).
T2 chain: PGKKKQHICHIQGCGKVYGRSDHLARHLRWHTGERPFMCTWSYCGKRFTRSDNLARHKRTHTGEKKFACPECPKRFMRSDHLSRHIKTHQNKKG
Put plainly: cell_activity; VP16 fusion on cotransfected reporter; KRAB fusion lowered hKCa4 conductance to 1.0 nS vs 10.0 for empty vector. The settings on record: tags: VP16 or KRAB fusion.

The term Kd denotes the equilibrium constant for the complex coming apart.

Consider SP-1 target site, for which, in data set [1], the Kd turned out to be 65 nM.

For the molecule Zif268 target site, the Kd in the data set on Zif268 was 60 nM.

B1: VEGF 18-bp target JVF9/JVF10 (dsDNA)
DNA 1: AGCGAGCGGGGAGGATCGCGGAGGCTTGGGGCAGCCGGGTAG
DNA 2: CGCTCTACCCGGCTGCCCCAAGCCTCCGCGATCCTCCCCGCT
On to B1, for which the binding signal with VEGF3a/1 six-finger ZFP is above 10 fold.

B2: hKCa4 target site (dsDNA)
DNA 1: GGGGAGGGC
DNA 2: GCCCTCCCC
For the molecule B2, the activity with ZFP3A-VP16 / KRAB-ZFP3A is above 5 fold activation.
